Source: the supplement of paper PMC12764529
± gives the half width of the 95% confidence interval.

Experiment: folding stability dG unfold from chymotrypsin proteolysis; higher = more stable
Outline: (§1)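 Sequencing followed digestion of designed mini-proteins with trypsin and chymotrypsin, each at 11 concentrations in threefold dilutions together with a no-protease condition. The mini-proteins were under 80 residues, had no cysteine, sat in a PA-tagged cDNA display construct, and were kept only if AlphaFold2 dimer inter-PAE was above 15. From the counts, Bayesian fitting gave K50, and unfolding free energy was derived against a sequence-predicted unfolded-state K50 and a shared folded-state K50, per protease or combined.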

Which “folding stability dG unfold” value does the source give for “SAGGSAGGMTVTFTLPATAPENALENVTATVTYNGKTYLVKITATPVPDGPFVVVTAELVEYDPSAGGSAGG [r6_415_TrMRF]” here?
The value was 3.68 ± 0.14 kcal/mol.

Which “folding stability dG unfold” value does the source give for “SAGGSAGGMTITLRIKITNPDGEEKEIEVELELPEELKGKTLEELAAELAKALLPPGAKVEVEPSAGGSAGG [r6_821_TrROS_Hall]” here?
The value was 3.15 ± 0.074 kcal/mol.

Which “folding stability dG unfold” value does the source give for “SAGGSAGGSAGGSAGVIVSLSPAPPSADTVVELPKGVTVTVTTVNGERVLTTLVPEALLSAGGSAGGSAGGS [r10_355_JUSTAS]” here?
The value was 0.00971 ± 0.032 kcal/mol.

With “SAGGSAGGSAAEASVVTFPGDLTAEVTKLPDGSYAVTVTFPENPGATATLTRTPDSVTVTPSAGGSAGGSAG [r3_170_JUSTAS]” as the sequence, how does the “folding stability dG unfold” value read?
The value was -1.1 ± 0.56 kcal/mol.

With “SASKRFVFPVLGDEQTITVDVPEDYYVRITVFFPDGSEPILIPPNEKVTITVPRKDAFVVIEVFPKNEESAG [r14_882_TrMRF]” as the sequence, how does the “folding stability dG unfold” value read?
Its value is 2.35 ± 0.025 kcal/mol.

For “SAGGSMERTVELTYTFKDKPIKITITVTTDPETGTVTVPIEIETEDEKIKEPALEKAKELAEELLASAGGSA [r2_259_JUSTAS]”, which “folding stability dG unfold” value is on record?
Its value is 0.26 ± 0.13 kcal/mol.

Which “folding stability dG unfold” value does the source give for “SAGGSAGGSAKPLKKLVLLLKVKGPFEEVEKILNEEFGVKKIVAFKDPETDEVYALIYLGDPSAGGSAGGSA [r18_275_TrMRF]” here?
Its value is 2.86 ± 0.04 kcal/mol.

For “SMKVIIIERPDESGVPVVIVLPEEEALELYRKLFNVPMSVEEFAEKLKELNPNVKVEVVPLEEVSEEVLLSA [r9_1085_JUSTAS]”, which “folding stability dG unfold” value is on record?
The value was 2.28 ± 0.058 kcal/mol.

With “SAGGSASMKIRVYTISLYRPDGESVRDVPIVVPENEPDVDPEALAKAIADELGLVKVEISEEIVPLSAGGSA [r15_333_JUSTAS]” as the sequence, how does the “folding stability dG unfold” value read?
Its value is 1.4 ± 0.31 kcal/mol.

For “SAGGSAGGWIPPEMARNIAKTLRDKGWPVEDIEVEREPNGWVTVDVDIQYPDGKKRKYPIQIPYSAGGSAGG [r6_762_TrROS]”, which “folding stability dG unfold” value is on record?
The value was 0.226 ± 0.23 kcal/mol.

Which “folding stability dG unfold” value does the source give for “SAGGSAMMLAKVKIELPNGEIVEIPIEFESLEELEEKIKEKARELFPDIPIEDIKILDIELYSLEESAGGSA [r15_220_TrMRF]” here?
The value was 5.32 ± 0.13 kcal/mol.

For “SAGGYYIEFRNPNNGNTVTIPPELIEAIKSGDPDKLKKLPPWFRDALDNIDRVEIQPPPPVPPVPPGKSAGG [r13_233_TrROS]”, which “folding stability dG unfold” value is on record?
The value was 0.958 ± 0.041 kcal/mol.

For “SAGVTLKLPFVLPGGLGVDEIEVRSLPGGRVEARLRLKGDPRYYVVARFYVLPGGRLVITDVRVRREDESAG [r14_705_TrMRF]”, which “folding stability dG unfold” value is on record?
The value was 3.22 ± 0.031 kcal/mol.

Which “folding stability dG unfold” value does the source give for “SAGGDKKKVKIHIFPPPGMPMDNFANYIQDQLGWDRNNIKVEPMDSPQEAERRAEKNGKPEIVIFFRSAGGS [r8_245_TrROS]” here?
Its value is 1.02 ± 0.54 kcal/mol.

With “SAGGSAPDDVEVEIKNIHYNPNWGYIMITIKVDGPVDSIEIELPNGWEISVMRDKDGTMTIMFPFPSAGGSA [r15_736_TrROS]” as the sequence, how does the “folding stability dG unfold” value read?
The value was 3.29 ± 0.18 kcal/mol.

With “SAGGMSVSITVTVTPTEVRVVENPTNGVNTAFTETTVTVTVNHPSSVSPEEKAALIAAVKAANPGAASAGGS [r8_306_JUSTAS]” as the sequence, how does the “folding stability dG unfold” value read?
The value was 1.92 ± 0.57 kcal/mol.

With “SEEIIKALEEAGYEVESIEYDEETKTVTITIYRKNKETGKIEKKTITIEVEPGMTEEELLALARELLEKESA [r9_184_TrROS_Hall]” as the sequence, how does the “folding stability dG unfold” value read?
The value was 4.71 ± 0.31 kcal/mol.

For “SAGGSAGGSAGEVVRVYPTPDGTTVTITPHPTTYTVTTTSPDGVPTTTPVSPAEVAALGLSAGGSAGGSAGG [r17_127_JUSTAS]”, which “folding stability dG unfold” value is on record?
The value was -0.25 ± 0.3 kcal/mol.

For “SAGGKEVKIEIEEKDGKLVIKITVKTEEELKEEIKKLLEEEFGLEVEEVKVEKNKNGEVTIYVVIKKKSAGG [r13_158_TrROS_Hall]”, which “folding stability dG unfold” value is on record?
Its value is 2.64 ± 0.2 kcal/mol.

With “SAGGSAGGSPKVTTSTSSSVLGNGRLESTVSNPDLGVTTLTLTDPESDVVTTFTETAGSTTPAASAGGSAGG [r6_757_JUSTAS]” as the sequence, how does the “folding stability dG unfold” value read?
The value was 0.815 ± 0.037 kcal/mol.

With “SAGGWMTWEFELEDEDGKDIKIEVEQNPGNPWWRVKIEHKGGKPIPEIPIPADSPDDAIDQARDLLKSAGGS [r16_158_TrROS]” as the sequence, how does the “folding stability dG unfold” value read?
Its value is -0.0698 ± 0.49 kcal/mol.

Experiment: folding stability dG unfold (combined trypsin and chymotrypsin); higher = more stable
Outline: as §1

For “SAGGMEVVEIKYDPETGTVTVTVAIPESLSFDEVAPEVEALVKEKTGRPVEITVDPATGTVTATVPRSAGGS [r8_314_JUSTAS]”, which “folding stability dG unfold” value is on record?
Its value is 1.15 ± 0.072 kcal/mol.

Which “folding stability dG unfold” value does the source give for “SAGGALDAIKNIAEKFGFPEIEDIDIDPDNGWLSFRFRGPEPVYIKIPWKPDKNGNLPVNIEVYPMDDSAGG [r13_410_TrROS]” here?
Its value is 1.65 ± 0.13 kcal/mol.

For “SMTYSYGVDVSEDPNSDKTTATITTTSSDGSSSLSPEEVAAELAAEAKAAGYTVDVELRPGSVTITVTAPSA [r9_510_JUSTAS]”, which “folding stability dG unfold” value is on record?
Its value is 0.354 ± 0.059 kcal/mol.

For “SMVTSETRETVTVTLPDGTVVTVTVTTHRPADGVPTATVTVTTTSADGTPTTSTHTFPAAEAPALIAAALSA [r9_189_JUSTAS]”, which “folding stability dG unfold” value is on record?
The value was 2.35 ± 0.086 kcal/mol.

Which “folding stability dG unfold” value does the source give for “SAGWRQILDMARNMLENGHMFRIEWTGPGGKPQEFRIPLDDIETLLDNWPDPDDIRSVDIEVYPPGEPISAG [r5_957_TrROS]” here?
Its value is 2.22 ± 0.062 kcal/mol.

Which “folding stability dG unfold” value does the source give for “SAGGSAGGSMKVEITKVEPETGPNGRPYYRVEVKVIGEDGSPYTFTFYFEKPSDIENAKISLDSAGGSAGGS [r20_130_TrMRF]” here?
Its value is 3.5 ± 0.21 kcal/mol.

For “SAGGMTLITIEHPDGEVIEFELPGATEEEAEAIAEEIAKRHDPGKVKVTFEKVPEKGVDPTKPVAVKSAGGS [r8_167_JUSTAS]”, which “folding stability dG unfold” value is on record?
The value was 0.917 ± 0.099 kcal/mol.

Which “folding stability dG unfold” value does the source give for “SAGGSAGGSWKPIPYKIKMTDGDGEKHEFPVQIWVAPEDGWVFIDFPNGHPFWIPANNIKIEPSAGGSAGGS [r12_256_TrROS]” here?
Its value is 1.4 ± 0.13 kcal/mol.

With “SAGGFEEKVKAGEEVVDVVAPITLPDGTEAVVTRVEPVDDGLLVTLRPPWTGEEVELPLPASEIPKLPSAGG [r13_340_JUSTAS]” as the sequence, how does the “folding stability dG unfold” value read?
The value was 1.11 ± 0.077 kcal/mol.

Which “folding stability dG unfold” value does the source give for “SAMPIQIMVERDPDDGYIKVTIMFRSDSPEEAYELIETLFENLGVEVNIERYPEEGYFMIEVEIRLPPGSAG [r14_424_TrROS]” here?
Its value is 3.89 ± 0.21 kcal/mol.
